Assay results: US20200354468A1 (US Dept. of Health and Human Services, published 2020)

T1: Recombinant CD133 domain A polypeptide (Homo sapiens, UniProt O43490 180-400, limits assumed)
T1 construct: also called CD133A; recombinant CD133 Extracellular Domain A
T1 sequence: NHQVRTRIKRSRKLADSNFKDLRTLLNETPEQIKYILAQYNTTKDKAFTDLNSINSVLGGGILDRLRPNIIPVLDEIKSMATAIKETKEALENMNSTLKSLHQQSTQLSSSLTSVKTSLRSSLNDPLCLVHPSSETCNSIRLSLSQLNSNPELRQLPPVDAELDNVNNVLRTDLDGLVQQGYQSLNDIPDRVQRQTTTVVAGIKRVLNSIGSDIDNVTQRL

T2: Recombinant CD133 domain B polypeptide (Homo sapiens, UniProt O43490 515-745)
T2 construct: also called CD133B; recombinant CD133 Extracellular Domain B
T2 sequence: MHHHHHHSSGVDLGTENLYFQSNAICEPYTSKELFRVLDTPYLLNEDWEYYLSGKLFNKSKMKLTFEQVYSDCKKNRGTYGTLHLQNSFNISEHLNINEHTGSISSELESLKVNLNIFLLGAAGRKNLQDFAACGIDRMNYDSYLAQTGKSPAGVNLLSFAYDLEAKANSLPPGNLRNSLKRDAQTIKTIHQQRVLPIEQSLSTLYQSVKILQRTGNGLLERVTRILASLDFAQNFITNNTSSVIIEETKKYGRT

T3: BSA-conjugated CD133 immunogenic polypeptide A (Homo sapiens, N-terminal lysine used for conjugation; conjugated to BSA)
T3 construct: The peptide stood in the assays as a BSA conjugate; also called A-BSA; PepA
T3 peptide: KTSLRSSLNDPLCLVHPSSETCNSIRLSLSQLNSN

T4: BSA-conjugated CD133 immunogenic polypeptide B (Homo sapiens, lysine added as C-terminal residue for conjugation; conjugated to BSA)
T4 construct: The peptide stood in the assays as a BSA conjugate; the text gives 615-643; also called B-BSA; Pep B
T4 peptide: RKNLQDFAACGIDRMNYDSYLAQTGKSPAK

B1: anti-CD133 monoclonal antibody mAb 133-3 (antibody, V domains shown)
VH: QSVEESGGRLVTPGTPLTLTCTVSGFSLSRYAMSWVRQAPGKGLDWIGYIDIGGGAYYASWAKGRFTISETSTTVYLKVNSPTTEDTATYFCARGVANSDIWGPGTLVTVSS
VL: ALVMTQTPSPVSAAVGGTVTINCQSSQSVFNNKWLSWYQQKPGQPPKLLIYFVSTLASGVPSRFKGSGSGTQFTLTISGVQCDDAATYYCQGSDYSSGWYSPFGGGTEVVVEG
notes: Rabbit IgG from a hybridoma, cloned and made recombinantly in HEK293 cells
B2: anti-CD133 monoclonal antibody mAb 47-10 (antibody, V domains shown)
VH: QSVEESGGRLVTPGTPLTLTCTVSGIDLNNYNMQWVRQAPGKGLEWIGATFGSDSIYYATWAKGRFTISKTSTTVDLKMTSLTTEDTATYFCARGGLWGPGTLVTVSS
VL: AQVLTQTASPVSAAVGATVTINCQSSQSVYNNNYLAWFQQKPGQPPKLLIYRASTLASGVSSRFKGSGSGTQFALTISGVQCDDAGTYYCQGEFSCDSADCAAFGGGTEVVVKG
notes: Rabbit IgG from a hybridoma, cloned and made recombinantly in HEK293 cells; also called clone 47-10; mAb subclone 47-10

Key:
[1] = target: T1, Recombinant CD133 domain A polypeptide; assay: direct ELISA, recombinant domain coated
Method: (§1) The cDNAs of IgG heavy and light chains were amplified by polymerase chain reaction (PCR) and cloned into a mammalian expression vector. The recombinant monoclonal antibody was then transiently expressed using a HEK293 cell system. The expressed recombinant antibodies were then tested by ELISA against CD133 immunogenic polypeptides A and B and recombinant domain A and B polypeptides. […] The testing confirmed the specificity of the mAbs. The cDNA was sequenced.

[2] = target: T2, Recombinant CD133 domain B polypeptide; assay: subclone screening by ELISA and Western blot
[3] = target: T3, BSA-conjugated CD133 immunogenic …; assay: direct ELISA, BSA-conjugated peptide coated
[4] = target: T4, BSA-conjugated CD133 immunogenic …; assay: direct ELISA, BSA-conjugated peptide coated
[5] = target: T2, Recombinant CD133 domain B polypeptide; assay: direct ELISA, recombinant domain coated
Method: as §1

| binding result [1] | binding result [2] | binding result [3] | binding result [4] | binding result [5] | Binder |
| --- | --- | --- | --- | --- | --- |
| no binding | binds | no binding | binds | – | B1 |
| – | – | – | no binding | no binding | B2 |
